Target: MHC II (mouse (endogenous in BMDM)) (UniProt P14434)
Chain of UniProt P14434 (P14434 24-256, chain 1 of 2): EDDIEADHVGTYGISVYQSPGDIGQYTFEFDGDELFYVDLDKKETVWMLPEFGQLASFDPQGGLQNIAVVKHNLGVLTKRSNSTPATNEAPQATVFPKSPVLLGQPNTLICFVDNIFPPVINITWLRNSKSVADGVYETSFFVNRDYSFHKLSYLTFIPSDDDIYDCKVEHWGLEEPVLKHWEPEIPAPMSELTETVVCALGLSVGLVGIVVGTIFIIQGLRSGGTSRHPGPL
Chain of UniProt P14434 (P14483 28-265, chain 2 of 2, further chain): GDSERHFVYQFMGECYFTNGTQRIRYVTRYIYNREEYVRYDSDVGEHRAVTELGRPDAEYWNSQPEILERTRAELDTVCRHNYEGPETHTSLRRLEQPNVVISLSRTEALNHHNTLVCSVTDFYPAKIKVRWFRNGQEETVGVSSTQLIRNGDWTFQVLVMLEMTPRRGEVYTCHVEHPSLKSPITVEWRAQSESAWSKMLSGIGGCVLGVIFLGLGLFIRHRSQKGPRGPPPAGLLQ

With “soluble CD4 (ectodomain of CD4, D1-D4 domains) (from UniProt P06332 27-394) (domain or fragment)” as the substance, how does the TLR4 hyperinflammation in vivo (LPS sepsis in mice); concentration of sCD4 needed for 50% inhibition read?
The TLR4 hyperinflammation in vivo (LPS sepsis in mice); concentration of sCD4 needed for 50% inhibition was 125 nM.

And the TNF/IL-6 response of macrophages to LPS in vitro; concentration of sCD4 needed for 50% inhibition of TLR4 hyperinflammation?
The TNF/IL-6 response of macrophages to LPS in vitro; concentration of sCD4 needed for 50% inhibition of TLR4 hyperinflammation was 25 nM.

Source: PMC10277282
